This assay addresses recombinant human mitochondrial Hsp60 (human), P10809. Briefly: native gel or EMSA + SEC. As to conditions: remark: other sources report otherwise. A general note: In EMSA bound probe runs differently from free probe, usually more slowly.

B1: recombinant human mitochondrial Hsp60, P10809 27-573 (natural protein)
chain: AKDVKFGADARALMLQGVDLLADAVAVTMGPKGRTVIIEQSWGSPKVTKDGVTVAKSIDLKDKYKNIGAKLVQDVANNTNEEAGDGTTTATVLARSIAKEGFEKISKGANPVEIRRGVMLAVDAVIAELKKQSKPVTTPEEIAQVATISANGDKEIGNIISDAMKKVGRKGVITVKDGKTLNDELEIIEGMKFDRGYISPYFINTSKGQKCEFQDAYVLLSEKKISSIQSIVPALEIANAHRKPLVIIAEDVDGEALSTLVLNRLKVGLQVVAVKAPGFGDNRKNQLKDMAIATGGAVFGEEGLTLNLEDVQPHDLGKVGEVIVTKDDAMLLKGKGDKAQIEKRIQEIIEQLDVTTSEYEKEKLNERLAKLSDGVAVLKVGGTSDVEVNEKKDRVTDALNATRAAVEEGIVLGGGCALLRCIPALDSLTPANEDQKIGIEIIKRTLKIPAMTIAKNAGVEGSLIVEKIMQSSSEVGYDAMAGDFVNMVEKGIIDPTKVVRTALLDAAGVASLLTTAEVVVTEIPKEEKDPGMGAMGGMGGGMGGGMF
The stoichiometry N is a count of units in the complex or per binding partner. Regarding B1, the stoichiometry N stood at 7.
